Several values for one entry are separate records, joined by “and”; a condition that tells them apart may be missing. Equal values may be shown once. Read-outs that look alike come from different tables or passages of the source.
Tests used:
[1] = 2-iminobiotin surface; from Nordlund 2003; read-out: Kd detected from the equilibrium response data; cited from earlier work
[2] = IAsys optical biosensor, affinity of avidin and avidin mutants towards 2-iminobiotin; format: binding
Experimental: (§1) Reversibility of biotin binding was measured for avidin and the mutants with an IAsys optical biosensor (Laitinen, O. H. et al., FEBS Lett 461 (1999), 52-8). Protein samples were allowed to bind to a biotin-aminosilane cuvette in PBS containing 1 M NaCl. After the equilibrium was reached, biotin-containing buffer was added and the dissociation of the proteins was monitored. The affinities of the proteins towards 2-iminobiotin were determined with an IAsys optical biosensor (Marttila, A. T. et al. FEBS Lett 441 (1998), 313-7). Biotin-binding activity of the mutants Avd-ci and Avd-ccci after heat treatment was studied with a microtiter plate assay. Protein samples, 5 μg/ml concentration in PBS, were heated for various time periods at 99.9° C. and then chilled on ice. The samples were transferred to a Nunc Maxisorp-plate and incubated at 37° C. for 2 h. The wells were washed three times with PBS-Tween (0.05% v/v). After that the wells were blocked with PBS containing 1% BSA at 37° C. for 30 minutes and washed again with PBS-Tween. Next, biotinylated alkaline phosphatase (Sigma) in PBS, 1% BSA was added and incubated at 37° C. for one hour. Once again, the wells were washed with PBS-Tween and the PNPP substrate in DEA buffer (1 mg/ml) was applied to the wells. The absorbances at 405 nm were measured after incubation for 45 minutes.

[3] = cited from earlier work; for ΔTm: change in Tm upon biotin addition, previously published values; for DSC Tm (+biotin) / DSC Tm(−biotin): previously published (Nordlund 2003; Gonzalez 1999)
[4] = Differential scanning calorimetry of the avidin mutants; format: physicochemical; conditions: for Tm: DSC, 100 mM Na-phosphate buffer pH 7.4
Experimental: In order to study the thermal stability of the purified avidin mutants, they were subjected to analysis by differential scanning calorimetry. A Nano II differential scanning calorimeter (Calorimetric Science Corporation, Provo, Utah) was used. […] The reference cell was filled with the same buffer that the sample proteins were dissolved in (100 mM Na-phosphate buffer pH 7.4). The thermograms were recorded as a function of temperature, between 25 and 130° C. at a temperature scan rate of 55.6° C./h. The baselines were subtracted and the transition midpoints (Tm) of the samples were calculated using proprietary software provided by the instrument manufacturer.

[5] = tested on: biotinylated alkaline phosphatase; test: Microtiter plate assay, biotin-binding activity after heat treatment at 99.9° C.; format: physicochemical; conditions: 99.9° C. for various time periods
Experimental: as §1, with “After that the wells were blocked with PBS containing 1% BSA at 37° C. for 30 minutes and washed again with PBS-Tween. Next, biotinylated alkaline phosphatase (Sigma) in PBS, 1% BSA was added and incubated at 37° C. for one hour. Once again, the wells were washed with PBS-Tween and the PNPP substrate in DEA buffer (1 mg/ml) was applied to the wells.” left out
Biotin-binding activity of the proteins after heat treatment was studied with a microtiter plate assay (Nordlund, H. R., Laitinen, O. H., Uotila, S. T., Nyholm, T., Hytönen, V. P., Slotte, J. P. & Kulomaa, M. S. (2003) J. Biol. Chem. 278, 2479-2483). […] The absorbencies at 405 nm were measured after incubation for 45 minutes.

[6] = Microparticle analysis, BF523-biotin binding of protein-coated particles before and after 95° C.; format: physicochemical; conditions: 30 minutes at 95° C., BF523-biotin added after treatment (iv)
Experimental: Before the analysis, 3.22 μm microparticles with COOH-group/0.852 nm2 (Bangs laboratories, Fishers, Ind., USA) were covalently coated with biotin-binding proteins. Microparticles (1*108 pcs) were washed twice with H20 by sequential centrifuging (5000 g; 3 min) and aspiration, and resuspended in 200 μl PB buffer (50 mM NaH2PO4-HCl, pH 3.0). A solution of biotin binding protein (50 μl, 1 mg/ml or 3 mg/ml, 50 mM Na-acetate pH 4.0) was added while vortexing. The suspension was incubated for 1 h (500 rpm; 23° C.). Particles were washed with PB and with MES buffer (50 mM, pH 5.5) and suspended in MES buffer (200 μl). […] After the last wash particles were suspended in 100 μl volume and concentration of particles was determined with Multisizer 3 Coulter Counter (Beckman Coulter, Fullerton, Calif., USA). […]
Microparticles (5*106 pcs) were suspended in 900 μl of assay buffer and aliquoted in […] PCR-tubes (i-v; 180 μl/aliquot). […] The samples were measured with ArcDia TPX PlateReader (ArcDia Ltd.) (Soini, E., Meltola, N. J., Soini, A. E., Soukka, J., Soini, J. T. & Hanninen, P. E. (2000) Biochem. Soc. Trans. 28, 70-74). […]
The fluorescence emission efficiencies of the BF523-biotin conjugate (200 nM) was determined before and after the incubation (30 min) at 95° C. […]

[7] = + biotin, difference in Tm compared to wt avidin + biotin
[8] = + biotin (biotin:avidin molar ratio 3:1)
[9] = without biotin, difference in Tm compared to wt avidin

Kd [2] [nM]	Substance	Kd [1] [nM]	ΔTm [3] [°C]	DSC Tm (+biotin) [3] [°C]	DSC Tm(−biotin) [3]	ΔTm [4, 7] [°C]	Tm [4, 8] [°C]	Tm ([4]; without biotin) [°C]	ΔTm [4, 9] [°C]	biotin-binding activity after heat treatment [5]	original signal after heat treatment of coated particles [6] [%]	ΔH of unfolding ([3]; previously published (Gonzalez 1999)) [kcal/mol]
94	Avd-cci: Avidin mutant D86C, I106C with four intermonomeric disulphide bridges (1-4 and 2-3)	94	43.1	117.5 ± 0.1	74.4 ± 0.1 °C	−0.7	117.5 ± 0.1	74.4 ± 0.1	−11.1	–	–	–
85	Avd-ci: Avidin mutant I117C with two intermonomeric disulphide bridges (subunits 1-3 and 2-4)	190	26.1	124.7 ± 0.5	98.6 °C and 98.6 ± 0.1 °C	6.5	124.7 ± 0.5	98.6 ± 0.1	13.1	remained active, in the sense of binding biotin, longer than the wild-type avidin	35	–
190	Avd-nc: Cysteineless avidin mutant C4A, C83Y; intramonomeric disulphide bridges removed	25	42.1	118.5 ± 0.1	76.4 ± 0.4 °C	0.3	118.5 ± 0.1	76.4 ± 0.4	–	–	–	–
–	Streptavidin: Bacterial streptavidin (SEQ ID NO 2), literature values [reference compound]	–	36.7	112.2	75.5 °C	–	–	–	–	–	–	150.3

— US20060281899A1, “Mutants of biotin binding protein” (priority 2002, published 2006)
